Assay: yeast display, Sf9 membrane polyspecificity reagent, FACS + sequencing; frameworks hold sequencing errors
Summary of the method: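 Nanobodies from a synthetic yeast display library (Saccharomyces cerevisiae BJ5465), induced 36–48 hours with galactose, were stained 1 hour at 4 °C with 10% biotinylated, detergent-solubilized Sf9 membrane reagent, enriched on streptavidin microbeads, then FACS-sorted. Anti-HA (expression) and streptavidin (reagent binding) fluorescence set low and high (top ~1%) gates. Polyreactivity labels come from the gate of origin. Genes were colony-PCR amplified, MiSeq 2 × 250 sequenced and filtered by CDR length.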

Row | Sequence | polyreactivity (PSR sort gate)
1 | QVQLQESGGGLEKACGSLRLSCAASVNISPRDAMCWYRQAPGEERDLVASNAYSAITYYADGVKGRYTISRDNAKNTVYLHMNSLKPEDTEVYYCAVYQFPYPVFPAYCGQGTQVTVSS | low polyreactivity
2 | QVQLVESGGGLVQAGGSLRLSCAASGFTFLVYAMGWYRQAPGKERELVAAITWSGDSTYYADSVKGRFTISRDNAKNTVYLQMNSLKPEDTAVYYCAAAYRYGTLYYYWGQGTQVTGSS | low polyreactivity
3 | QVQLVESGGGLVQAGGSLRLSCAASGITFKLYAIGWYRQAPGKERELVATINRGSSTYYADSVKGRFTISRDNAKNTVYLQMNSLKPEDTAVYYCAADNVRKWHKMDYWGQGTQVTVSS | high polyreactivity
4 | QVQLVESGGGLVQAGGSLRLSCAASGRTFYRYAMGWYRQAPGKERELVARIRSGGSTNYADSVKGRFTISRDNAKNTVYLQMNSLKPEDTAVYYCAARPGAAGYKYYYWGQGTQVTVSS | high polyreactivity
5 | QVQLVESGGGLVQAGGTLRLSCAASGSIFAHYTMGWYRQAPGKERELVAVISRSGARTYYADSVKGRFTISRDNAKNTVYLQMNSLKPEDTAVYYCAADRTLEEDYWGQGTQVTVSS | low polyreactivity
6 | QVHLVESGGGLVQAGGSLRLSCAASGLTFYYYVMGWYRQAPGKERELVAAISYSGGRTYYADSVKGRFTISRDNAKNTVYLQMNSLKPEDTAVYYCAAQSRYGGKFYYWGQGTQVTVSS | high polyreactivity
7 | QVQLVESGGGLVQAGGSLRLSCAASGFIFSRNAMGWYRQAPGKERELVAAISAGGGSTYYADSVKGRFTISLDNAKYTVYLQMNSLKPEDSAVYSCAAYFRSQFGYWGQGTEVTVSS | high polyreactivity
8 | QVQLVESGGGLVQAGGSLRLSCAASGGIFGYYVMGWYRQAPGKERELVAVITRGGSTNYADSVKGRFTISRDNAKNTVYLQMNSLKPEDTAVYYFAKDVPYRRVRSEYWGQGTQVTVSS | low polyreactivity
9 | QVQLVESGGGLVQAGGTLLLTCAASGFIFDIYAMGWSRPAPGKERELVAAITWNSGSTHYADSVKGRFTISRDTAKNTVYLQMNRLKPEDTAVYYCAADEVTYAYYPYDYWGQGTQVTVSS | low polyreactivity
10 | QVQLVESGGGLVQAGGSLRLSCAASGFIFYLYTMGWYRQAPGKERELVAAITKSGTRTYYADSVKGRFTISRDNAKNTVYLQMNSLKPEDTAVYYCAAEWGSSYRWGMDYWGQGTQVTVSS | high polyreactivity
11 | QVQLVESGGGLVQAGGSLRLSCAASGSTFPYYAMGWYRQAPGKERELVARISSGSSTNYADSVKGRFTISRDNAKNTVYLQMNSLKPEDTAVYYCAARYTARRQSYGYWGQGTQVTVSS | high polyreactivity
12 | QVQLEESGGGLVQAGGSLRLSCPASGSTFIVNVMGWYRQAPGKERELVAAINSGGSTDYADSVKGRFTISRDNAKNTVYLQMNSLKPEDTAVYYCNAYHIVIYDYWGQGTQVTVSS | low polyreactivity
13 | QVQLVESGGGLVQAGGSLRLSCAASGSTFRYYAMGWYRQAPGKERELVAAISGTGSTYYADSVKGRFTISRDNAKNTVSLQMNSLKPEDTAVYYCGAYPRGSQRYNYWGQGTQVTVSS | high polyreactivity
14 | QDQLVESVGGLVQAGGSLRLSCAASGLIFYYYDMGWYRQAPGKERELVAAISSRGSSTYYADSVKGRFTISRVNAKNTVYLQMNSLKPEDTAVYYCAADSVSKYFGYDYWGQGTQVTVSS | high polyreactivity
15 | QVQLVESGGGLVQAGGSLRLSCAASGRTFWAYALGWYRQGPGKERELVAAITTSGGSTNYADSVKGRFTISRDNAKNTVYVQLHSLKPEDTAVYYCNADPTYPVVNGVGYWGQGTQVTVSS | low polyreactivity
16 | QVQLVESGGGLVQAGGSLRLSCAASGSIFQQYAMGWYRQAPGKERELVAAISYSGGTTYYADSVKGRFTISRDNAKNTVYLQMNSLKPEDTAVYYCAAYYPSGSYDYYWGQGTQVTVSS | low polyreactivity
17 | QVQLVEAGGGLVQAGVSLRLSCAASGIIFGSYAMGWYRQAPGKERELVATISYDGGSTYYADSVKGRFTISRDNAKNTVYLQMKSLKPDDTAVSYCAAVYQSWFGLRSYYYWGQGTQVTVSS | high polyreactivity

Source: the nanobody polyreactivity screen of Harvey et al. (2022)
